Key:
[1] = biological target: recombinant bank vole (BV) PrP(90–231), I109 natural polymorph (bank vole) (UniProt Q8VHV5); test: NMR diffusion
[2] = biological target: recombinant bank vole (BV) PrP(90–231), I109 natural polymorph (bank vole) (UniProt Q8VHV5); test: SEC

Substance: recombinant bank vole (BV) PrP(90–231), I109 natural polymorph (from UniProt Q8VHV5 90-231) (domain or fragment)
- stoichiometry N [1]: 16
- stoichiometry N [2]: 12
